Laboratory results published in patent publication US10227575B2, “Multi-domain enzymes having cutinase activity, compositions comprising same and uses thereof” (OZYMES, priority 2015, dated 2019).
Where “and” joins values, the source holds several entries; their conditions need not be identical. Identical values can stand only once. Marks after values point to notes of the source that are not given here.

Key:
[1] = Specific activity of purified enzymes (standard esterase assay); type: biochemical
In short: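 Purified enzymes tested on pNP-esters, including pNP-palmitate, at 0.8 mM final in 50 mM Tris/HCl pH 8.0 (substrate predissolved in 2-propanol). p-Nitrophenol release followed at 410 nm (ε 15 mM^−1 cm^−1); 1 U = 1 μmol pNP/min, specific activity given as U/mg protein.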

[2] = Enzymatic activity in the presence of organic solvents; type: biochemical; details: buffer only = 100%
Experimental: Enzyme activity in various organic solvents was studied over a concentration range of 1-30% at room temperature. pNP-palmitate was completely dissolved in 2-propanol (8 mM) and then added to 50 mM Tris/HCl buffer pH 8.0 containing up to 30% organic solvent to give a final substrate concentration of 0.8 mM. The reaction was started by addition of enzyme and the formation of pNP was assayed as described above in Example 20.1.

[3] = Activity of crude culture supernatants from bioreactor; type: biochemical; details: pNP-dodecanoate
[4] = Enzyme substrate profiles, esterase assays; type: biochemical; details: highest activity towards a specific substrate set to 100%
In short: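 Hydrolysis of pNP-ester substrates, final 0.8 mM (from 8 mM 2-propanol stock), in 50 mM Tris/HCl pH 8.0, followed as pNP release at 410 nm (ε 15 mM^−1 cm^−1). One U = 1 μmol pNP/min; specific activity as U/mg protein.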

[5] = Circular dichroism spectroscopy, melting temperature and refolding; type: physicochemical
In short: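 Purified protein at 0.15 mg/mL where possible; far-UV CD spectra recorded 190–250 nm against a buffer blank. Unfolding followed at 222 nm from 20 to 90° C. at 2° C. min-1, held 5 min at maximum, then refolding tracked on the reverse ramp; Tm, ΔH, ΔS, ΔG calculated where applicable.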

pH dependence of enzymes = type: biochemical; details: for Relative activity (%): highest activity = 100%
Experimental: The influence of different pH values (from 5.5 to 11) on the activities of the purified enzymes was examined in three buffer systems (sodium acetate, sodium phosphate, and Tris-HCl) at room temperature using pNP-palmitate (see esterase assay in Example 20.1) as a substrate at a final substrate concentration of 0.8 mM.

[6] = Stability in the presence of hydrogen peroxide; type: physicochemical
In short: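 Purified cutinases held at room temperature with 0, 30, 100, 300, 1500 or 3000 ppm H2O2; residual esterase activity assayed after 1, 2, 3 and 7 days. Activity read as pNP release at 410 nm from pNP-esters (0.8 mM final) in 50 mM Tris/HCl pH 8.0; U = 1 μmol pNP/min, ε 15 mM^−1 cm^−1.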

Temperature optimum = type: biochemical; details: for Relative activity at temperature: highest activity set to 100%
Experimental: For estimation of the temperature optimum, buffer containing pNP-palmitate (see esterase assay in Example 20.1) was pre-incubated to reach the desired temperature, enzyme was then added, and the formation of pNP was assayed. For this experiment, Tris/HCl buffer was replaced with sodium phosphate buffer (50 mM, pH 8.0) to avoid a pH shift at the different temperatures.

B1: Cf-TP: chimeric variant: catalytic and polymer binding domains of CfCUT with T/P-rich linker domain of KrCUT, SEQ ID NO: 29 (protein)
chain: APACPDVELVFARGTGEAAGLGIVGRPLERALAAELPGRTVVATAVDYAASSSQASAGPGSGDMVAKVRSRAAACPGTQFVLGGYSQGATVTDLALGIRTGVTAGTALPEDLAARVAAVVVYGNPLGLTRRTIAQAAPAFATRTVEYCNAGDPVCEPGGGRFTAHITYATNGTVLEGARFAAARVTAAGTPTTPTPTPTPTPVPTTCVTASSLQHVRDGRAYPLWMRTYARGSGDPLGVLSSRTVVSLQADGTDTWRKVAAC
modifications: YebF carrier; Cf-TP variant
Enzymatic activity of the purified variant ([1]; pNP-palmitate): 30 ± 2 U/mg | Spec. Act. (U/mg) ([1]; towards pNP-palmitate (standard assay)): 30 ± 2 U/mg | Relative enzymatic activity (%) ([2]; 2-Propanol 5% (v/v)): 93 ± 1% | Relative enzymatic activity (%) ([2]; 2-Propanol 10% (v/v)): 92 ± 2% | Relative enzymatic activity (%) ([2]; Acetone 1% (v/v)): 103 ± 12% | Relative enzymatic activity (%) ([2]; Acetone 5% (v/v)): 112 ± 10% | Relative enzymatic activity (%) ([2]; Acetone 10% (v/v)): 109 ± 6% | Relative enzymatic activity (%) ([2]; Dimethyl sulfoxide (DMSO) 10% (v/v)): 150 ± 14% | Relative enzymatic activity (%) ([2]; Dimethyl sulfoxide (DMSO) 20% (v/v)): 146 ± 23% | Relative enzymatic activity (%) ([2]; Dimethyl sulfoxide (DMSO) 30% (v/v)): 129 ± 18% | Relative enzymatic activity (%) ([2]; Dimethylformamide (DMF) 5% (v/v)): 134 ± 10% | Relative enzymatic activity (%) ([2]; Methanol 10% (v/v)): 121 ± 14% | Relative enzymatic activity (%) ([2]; Methanol 20% (v/v)): 94 ± 1% | activity of crude culture supernatant [3]: 0.6 U/mL | Relative activity, pNP-acetate (C2) [4]: 5% | Relative activity, pNP-butyrate (C4) [4]: 80 ± 3% | Relative activity, pNP-caprylate (C8) [4]: 33 ± 1% | Relative activity, pNP-decanoate (C10) [4]: 66 ± 8% | Relative activity, pNP-myristate (C14) [4]: 40 ± 4% | Relative activity, pNP-palmitate (C16) [4]: 100* % | refolding ([5]; CD at 222 nm): some refolding | melting temperature (Tm) ([5]; CD at 222 nm, unfolding): 56.6 °C | Tm (° C.) ([5]; estimated using CD-spectroscopy): 57 ± 1 °C | pH opt. (pH dependence of enzymes): 9.5 | Relative activity (%) (pH dependence of enzymes; pH 6.5, sodium phosphate buffer): 12 ± 1% | Relative activity (%) (pH dependence of enzymes; pH 7.0, sodium phosphate buffer): 22 ± 1% | Relative activity (%) (pH dependence of enzymes; pH 7.5, sodium phosphate buffer): 36 ± 1% | Relative activity (%) (pH dependence of enzymes; pH 8.0, Tris/HCl): 65 ± 7% | Relative activity (%) (pH dependence of enzymes; pH 8.5, Tris/HCl): 88 ± 8% | Relative activity (%) (pH dependence of enzymes; pH 9.0, Tris/HCl): 95 ± 3% | Relative activity (%) (pH dependence of enzymes; pH 9.5, Tris/HCl): 100* % | Relative activity (%) (pH dependence of enzymes; pH 10, Tris/HCl): 35 ± 4% | Relative activity (%) after exposure to hydrogen peroxide ([6]; H2O2 30 ppm, Day 0): 97 ± 1% | Relative activity (%) after exposure to hydrogen peroxide ([6]; H2O2 30 ppm, Day 1): 89 ± 4% | Relative activity (%) after exposure to hydrogen peroxide ([6]; H2O2 30 ppm, Day 2): 78 ± 3% | Relative activity (%) after exposure to hydrogen peroxide ([6]; H2O2 30 ppm, Day 3): 86 ± 2% | Relative activity (%) after exposure to hydrogen peroxide ([6]; H2O2 30 ppm, Day 7): 65 ± 7% | Relative activity (%) after exposure to hydrogen peroxide ([6]; H2O2 100 ppm, Day 0): 98 ± 6% | Relative activity (%) after exposure to hydrogen peroxide ([6]; H2O2 100 ppm, Day 1): 91 ± 3% | Relative activity (%) after exposure to hydrogen peroxide ([6]; H2O2 100 ppm, Day 2): 89 ± 7% | Relative activity (%) after exposure to hydrogen peroxide ([6]; H2O2 100 ppm, Day 3): 94 ± 7% | Relative activity (%) after exposure to hydrogen peroxide ([6]; H2O2 100 ppm, Day 7): 74 ± 6% | Relative activity (%) after exposure to hydrogen peroxide ([6]; H2O2 300 ppm, Day 0): 95 ± 6% | Relative activity (%) after exposure to hydrogen peroxide ([6]; H2O2 300 ppm, Day 1): 88 ± 3% | Relative activity (%) after exposure to hydrogen peroxide ([6]; H2O2 300 ppm, Day 2): 85 ± 12% | Relative activity (%) after exposure to hydrogen peroxide ([6]; H2O2 300 ppm, Day 3): 98 ± 3% | Relative activity (%) after exposure to hydrogen peroxide ([6]; H2O2 300 ppm, Day 7): 77 ± 5% | Relative activity (%) after exposure to hydrogen peroxide ([6]; H2O2 1,500 ppm, Day 0): 95 ± 9% | Relative activity (%) after exposure to hydrogen peroxide ([6]; H2O2 1,500 ppm, Day 1): 89 ± 3% | Relative activity (%) after exposure to hydrogen peroxide ([6]; H2O2 1,500 ppm, Day 2): 88 ± 6% | Relative activity (%) after exposure to hydrogen peroxide ([6]; H2O2 1,500 ppm, Day 3): 87 ± 4% | Relative activity (%) after exposure to hydrogen peroxide ([6]; H2O2 1,500 ppm, Day 7): 68 ± 7% | Relative activity (%) after exposure to hydrogen peroxide ([6]; H2O2 3,000 ppm, Day 0): 80% and 80 ± 2% | Relative activity (%) after exposure to hydrogen peroxide ([6]; H2O2 3,000 ppm, Day 1): 74 ± 5% | Relative activity (%) after exposure to hydrogen peroxide ([6]; H2O2 3,000 ppm, Day 2): 77 ± 2% | Relative activity (%) after exposure to hydrogen peroxide ([6]; H2O2 3,000 ppm, Day 3): 78 ± 5% | Relative activity (%) after exposure to hydrogen peroxide ([6]; H2O2 3,000 ppm, Day 7): 57% and 57 ± 5% | Temp. opt. (° C.) (Temperature optimum): 35 °C | Relative activity at temperature (Temperature optimum; 20 ° C.): 54 ± 5% | Relative activity at temperature (Temperature optimum; 25 ° C.): 84 ± 9% | Relative activity at temperature (Temperature optimum; 30 ° C.): 95 ± 5% | Relative activity at temperature (Temperature optimum; 35 ° C.): 100* % | Relative activity at temperature (Temperature optimum; 40 ° C.): 89 ± 6% | Relative activity at temperature (Temperature optimum; 45 ° C.): 72 ± 7% | Relative activity at temperature (Temperature optimum; 50 ° C.): 37 ± 6% | Relative activity at temperature (Temperature optimum; 55 ° C.): 9 ± 1%
